We go through 2 molecules from patent US10407473B2, “Methods for treating disorders that involve immunoglobulin A” (UNIVERSITY OF MANITOBA, priority 2011, dated 2019).

In data set [1] the test system is mouse B cells stimulated to produce IgA. Description: IgA production by cultured, stimulated mouse splenic B cells (ELISA of supernatants, flow cytometry). Format: cell-based. Particulars: FIG. 8, C57BL6 spleen B cells cultured 5 days with stimuli and a percentage of supernatant, vs Control SN. From the text: A polypeptide of the present invention having immunoregulatory activity inhibits IgA production by B cells in vitro. Whether a polypeptide has immuno-modulatory activity may be determined by in vitro assays. An example of an in vitro assay is described in Example 1. The assay uses B cells, which in one embodiment may be a primary cell obtained from an animal, such as a mouse or human, or in another embodiment may be a B cell line. When obtained from an animal, B cells may be obtained from lymphoid tissues such as spleen, tonsil, and lymph node. […]
Single cell suspensions were generated from the indicated tissues and were pre-incubated with hybridoma supernatant containing Fc receptor blocking antibody. […] Data were analyzed using FlowJo software (TreeStar).
Serum, saliva and bronchoalveolar lavage fluid were collected from 10-14 week old FDC-SP-deficient mice, FDC-SP transgenic mice and strain, age and sex-matched controls. […] Total antibodies levels were determined by coating with anti-mouse IgM or IgA (Jackson ImmunoResearch Laboratories) and NP-specific antibodies levels were determined by coating plates with NP20-BSA (Biosearch Technologies). […]

In the next data set the test system is T lymphoma cells. Particulars: secreted FDC-SP; cited from earlier work.
Data set [2] in a line: Toxicity observation in FDC-SP transgenic mice. Particulars: transgenic mice expressing increased levels of FDC-SP polypeptide. The format is in vivo. From the text:
FDC-SP transgenic CD1 mice (i.e., mice constitutively expressing FDC-SP in lymphoid tissues) were generated as described (Al-Alwan et al., 2007, J. Immunol., 178:7859-7867). All experimental animals were housed at the Central Animal Care Facility (University of Manitoba, Winnipeg, MB) in compliance with the guidelines established by the Canadian Council on Animal Care.

In another data set the test system is B lymphoma cells. The note with it: secreted FDC-SP; cited from earlier work.

B1: FDC-SP SN: supernatant of L cells transfected with FDC-SP expression vector, containing recombinant FDC-SP (protein, UniProt Q8NFU4 18-85, looked up)
Follicular dendritic cell …: FPVSQDQEREKRSISDSDELASGFFVFPYPYPFRPLPPIPFPRFPWFRRNFPIPIPESAPTTPLPSEK
modifications: in L cell culture supernatant
For the molecule B1, the “IgA production in vitro” value in data set [1] is listed as “suppressed”.

B2: FDC-SP: secreted immuno-modulatory polypeptide expressed by activated follicular dendritic cells (protein, UniProt Q8NFU4 18-85, looked up)
Follicular dendritic cell …: B1 Follicular dendritic cell …
Turning to B2, in the data set with T lymphoma cells, the “binding to the surface of T lymphoma cells” value is on record as “not”. In addition, the “toxicity associated with the polypeptide” value in data set [2] is given as “no evidence of toxicity”. Further, the “binding to the surface of B lymphoma cells” value in the data set on B lymphoma cells is “can bind”.
